# In paper PMC12398788, “Molecular basis of the autoregulatory mechanism of motor neuron-related splicing factor 30”:
# Positions count from the first letter of the chain named.
# T1: SPF30 197-217 peptide (human, UniProt O75940 197-217)
# T1 chain: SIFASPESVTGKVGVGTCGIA
# T2: SPF30 ΔC1 (human, UniProt O75940 1-164)
# T2 sequence: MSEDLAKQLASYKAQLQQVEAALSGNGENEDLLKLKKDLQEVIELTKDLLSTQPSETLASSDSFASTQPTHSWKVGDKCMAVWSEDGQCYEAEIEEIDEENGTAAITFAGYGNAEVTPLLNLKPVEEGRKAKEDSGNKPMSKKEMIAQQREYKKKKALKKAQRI
# T3: 6xHis-SPF30 WT (human, UniProt O75940 1-238)
# T3 sequence: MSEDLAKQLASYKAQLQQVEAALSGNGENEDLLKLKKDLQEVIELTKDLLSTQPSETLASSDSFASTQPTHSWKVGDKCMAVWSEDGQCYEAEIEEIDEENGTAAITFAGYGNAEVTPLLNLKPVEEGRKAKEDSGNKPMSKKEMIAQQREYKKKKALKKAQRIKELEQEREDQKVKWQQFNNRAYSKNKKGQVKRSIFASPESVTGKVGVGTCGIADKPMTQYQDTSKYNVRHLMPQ
# T4: SPF30 ΔC5 (human, UniProt O75940 1-217)
# T4 sequence: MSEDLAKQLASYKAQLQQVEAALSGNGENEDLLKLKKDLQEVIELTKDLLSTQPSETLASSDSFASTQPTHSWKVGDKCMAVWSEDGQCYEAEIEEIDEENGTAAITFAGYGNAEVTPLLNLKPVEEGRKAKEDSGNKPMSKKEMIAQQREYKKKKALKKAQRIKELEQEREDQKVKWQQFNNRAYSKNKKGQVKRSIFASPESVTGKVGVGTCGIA
# T5: SPF30 FSV3A (human, UniProt O75940 1-238, F199A;S201A;V209A)
# T5 sequence: T3 sequence with F199A, S201A, V209A
# B1: BT-RNA WT (ssRNA)
# RNA: CUGCUUACAGCCAUGAUAUCUUUACAGGUGUUAUGAAGCGG
# Tests used:
# [1] = biological target: T1, SPF30 197-217 peptide; assay: EMSA; EMSA: 40 mM Tris-HCl pH 7.4, 30 mM KCl, 1 mM MgCl2, 0.01% IGEPAL CA-630, 25 °C 30 min, 20 fmol RNA in 12 µl; UV cross-linking: 50 mM Tris-HCl pH 7.4, 150 mM NaCl, 0.5% IGEPAL CA-630, 4 °C 4 h; details: label: biotin; stem-loop predicted at intron 3/exon 4a/exon 4
# [2] = biological target: T2, SPF30 ΔC1; assay: EMSA; 200 or 400 ng protein; EMSA: 40 mM Tris-HCl pH 7.4, 30 mM KCl, 1 mM MgCl2, 0.01% IGEPAL CA-630, 25 °C 30 min, 20 fmol RNA in 12 µl; UV cross-linking: 50 mM Tris-HCl pH 7.4, 150 mM NaCl, 0.5% IGEPAL CA-630, 4 °C 4 h; details: protein: recombinant; tags: N-terminal 6xHis; label: biotin; stem-loop predicted at intron 3/exon 4a/exon 4
# [3] = biological target: T3, 6xHis-SPF30 WT; assay: as above; details: protein: recombinant; tags: N-terminal 6xHis (pCold I); C-terminal FLAG from primer KI-125; label: biotin; stem-loop predicted at intron 3/exon 4a/exon 4
# [4] = biological target: T4, SPF30 ΔC5; assay: as above; details: protein: recombinant; tags: N-terminal 6xHis; label: biotin; stem-loop predicted at intron 3/exon 4a/exon 4
# [5] = biological target: T5, SPF30 FSV3A; assay: EMSA; 200 or 400 ng protein; distinct mobility from WT; EMSA: 40 mM Tris-HCl pH 7.4, 30 mM KCl, 1 mM MgCl2, 0.01% IGEPAL CA-630, 25 °C 30 min, 20 fmol RNA in 12 µl; UV cross-linking: 50 mM Tris-HCl pH 7.4, 150 mM NaCl, 0.5% IGEPAL CA-630, 4 °C 4 h; details: protein: recombinant; tags: N-terminal 6xHis; label: biotin; stem-loop predicted at intron 3/exon 4a/exon 4
binder,measurement,setting,value
B1,binding result,[1],no binding
same,binding result,[2],no binding
same,binding result,[3],binds
same,binding result,[4],binds
same,binding result,[5],binds
